The nanobody polyreactivity screen of Harvey et al. (2022)

assay: yeast display, Sf9 membrane polyspecificity reagent, FACS + sequencing; frameworks hold sequencing errors
How it was run: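 Nanobodies from a synthetic yeast display library (Saccharomyces cerevisiae BJ5465), induced 36–48 hours with galactose, were stained 1 hour at 4 °C with 10% biotinylated, detergent-solubilized Sf9 membrane reagent, enriched on streptavidin microbeads, then FACS-sorted. Anti-HA (expression) and streptavidin (reagent binding) fluorescence set low and high (top ~1%) gates. Polyreactivity labels come from the gate of origin. Genes were colony-PCR amplified, MiSeq 2 × 250 sequenced and filtered by CDR length.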

Row | Sequence | polyreactivity (PSR sort gate)
1 | QVQLVESGGGLVQAGGSLRLSCAASGSIFRYYAMGWYRQAPGKEREFVASITYRGGRTYYADSVKGRFTISRDNAKNTVYLQLNSLKPEDTAVYYCAARTRAGAWTSKYLDYWGQGTQVTVSS | high polyreactivity
2 | QVQLVESGGGLVQAGGSLRLSCAASGSIFRYYAMGWYRQAPGKERELVAAIRWSGGRTYYADSVKGRFTISRDNAKNTVYLQMNSLKPEDTAVYYCAADQPDYKTNVRYYYWGQGTQVTVSS | high polyreactivity
3 | QVQLVESGGGLVQAGGSLRLSCAASGSIFRYYAMGWYRQAPGKERELVAAISRRGSSTYYPDSVKGRFTISRDNAKNTVYLQMNSLKPEDTAVYYCATAYRGRAWGYDYWGQGTQVTVSS | high polyreactivity
4 | QVQLVESGGGLVQAGGSLRLSCAASGSIFRYYAMGWYRQAPGKERELVAAISSSGGSTYYADSVKGRFTISRDNAKNTVYLQMNSLKPEDTAVYYCARDWPSYYARQYDYWGQGTQVTVSS | high polyreactivity
5 | QVQLVESGGGLVQAGGSLRLSCAASGSIFRYYAMGWYRQAPGKERELVAGISRSGGSTYYADSEKGRFTISRDNAKNTVYLQMNSLKPEDTAVYYCAATAYSPRGKRYDSWGQVTQVTVSS | high polyreactivity
6 | QVQLVESGGGLVQAGGSLRLSCAASGSIFRYYAMGWYRQAPGKERESVADITSSGGSTYYADSVKGRFTISRDNAKNTVYLQMNSLKPEDTAVSYCAREDNLRHQSDSRYDYWGQGTQVTVSS | low polyreactivity
7 | QVQLVESGGGLVQAGGSLRLSCAASGSIFRYYDMGWYRQAPGKERELVAAISWSGGTTYYADSVKGRFTISRDNAKNSVYLQMNSLNPEDTAVYYCNRVRYPSFVYWGQGTQVTVSS | high polyreactivity
8 | QVQLVESGGGLVQAGGSLRLSCAASGSIFRYYDMGWYRQAPGKERELVAAISWSGGTTYYADSVKGRFTISRDNAKNTVYLQMNSLKPEDTAVYYCNRVRYPSYDYWGQGTQVTVSS | high polyreactivity
9 | QVQLVESGGGLVQAGGSLRLSCAASGSIFRYYDMGWYRQAPGKERELVAAITYSGGGTYYADSLKGRFTISRDNAKNTVYLQMNSLKPEDTAVYYCAAEPYYGWQRLDYWGQGTQVTVSS | low polyreactivity
10 | QVQLVESGGGLVQAGGSLRLSCAASGSIFRYYTMGWYRQAPGKERELVARISSSGSTNYADSVKGRFTISRDNAKNTVYLQMNSLKPEDTAVYYCAARSFSWAGYYYWGQGTQVTVSS | low polyreactivity
11 | QVQLVESGGGLVQAGGSLRLSCAASGSIFRYYTMGWYRQEPGKERELVAAISCNGGRTYYADSVKGRFTISCDNAKNTVYLQMNSLKPEDTAVYYCNAVYILTETWYDYWGQGTQVTVSS | high polyreactivity
12 | QVQLVESGGGLVQAGGSLRLSCAASGSIFRYYVMGWYRQAPGKERELVAAINGGGGSTYYADSVKGRFTISRDNAKNTVYLQMNSLKPEDTAVYYCNAVGGTRGKYPYFKYGYWGQGTQVTVSS | high polyreactivity
13 | QVQLVESGGGLVQAGGSLRLSCAASGSIFSANAMGWYRQAPGKERELVAAIRRTGGSTYYADSVKGRFTISRDNAKNTVYLQMNSLKPEDTAVYFCTKRHSILYEGGYDYWGQGTQVTVSS | low polyreactivity
14 | QVQLVESGGGLVQAGGSLRLSCAASGSIFSANVMGWYRQAPGKERELVAAITRGGGTYYADSVKGRFTISRDNAKNTVYLQMNSLKPEDTAVYYCNDDYTLSVYGTTYWYNYWGQGTQVTVSS | high polyreactivity
15 | QVQLVESGGGLVQAGGSLRLSCAASGSIFSANVMVWYRQAPGKEWELVAASRRGGTTYYADSVKGRFTISRDNAKNTVYLQMNSLKPEDTAVYYCATDGNFGSYLRFAVAYDYWGQGTQVTVSS | low polyreactivity
16 | QVQLVESGGGLVQAGGSLRLSCAASGSIFSDYTMGWYRQAPGKERELVAAISGIGGSTYYADSVKGRFTISRDNAKNTVYLQMNSLTPEDTAVYYCAPDDYYYPYFSHDYWGQGTQVTVSS | low polyreactivity
17 | QVQLVESGGGLVQAGGSLRLSCAASGSIFSFYAMGWYRQAPGKERELVAAIDVSGGSTYYADSVKGRFTISRDNAKNTVYLQMNSLKPEDTAVYYCAKDVRDQYDYWGQGTQVTVSS | low polyreactivity
18 | QVQLVESGGGLVQAGGSLRLSCAASGSIFSFYAMGWYRQAPGKERELVAAITSDGSTDYADSVKGRFTISRDNAKNTVYLQMNSLKPEDTAVYYCAADYIVRVVSRYRYGYEYWGQGTQVTVSS | low polyreactivity
19 | QVQLVESGGGLVQAGGSLRLSCAASGSIFSFYAMGWYRQAPGKERELVATISSGDNTNYADSVKGRFTISRDNAKNTVYLQMISLKPEDTAVYYCAADAWGVDREYDYWGQGTQVTVSS | low polyreactivity
20 | QVQLVESGGGLVQAGGSLRLSCAASGSIFSFYTMGWYRQAPGKERELVARIRSSGGDTYYADSVKGRFTISRDNAKNTVYLQMNSLKPEDTAVYYCARDGYHRDYDYWGQGTQVTVSS | low polyreactivity
21 | QVQLVESGGGLVQAGGSLRLSCAASGSIFSGNAMGRYRQAPGKERELVAAISRSGGSTYYADSVKGRFTISRDNAKNTVYLQMNSLKPEDTAVYYCAAYRTHGPPRAIRFDYWGQGTQVTVSS | high polyreactivity
22 | QVQLVESGGGLVQAGGSLRLSCAASGSIFSGNAMGWYRQAPGKERELVAAISRSGGSTYYADSVKGRFTISRDNAKNTVYLQMNSLKPEDTAVYYCAAYRTHGPPRAIRFDYWGQGTQVTVSS | high polyreactivity
23 | QVQLVESGGGLVQAGGSLRLSCAASGSIFSGNAMGWYRQAPGKERELVAAISRSGGSTYYADSVMGRFTISRDNAKNTVYLQMNSLKPEDTAVYYCNAGRYRAGGWGVGEGYWGQGTQVTVSS | high polyreactivity
24 | QVQLVESGGGLVQAGGSLRLSCAASGSIFSGNAMGWYRQAPGKERELVAFISWNAVGTYYSDSVKGRFTISRDNAKNTVYLQLNSLKPEDTAVYYCSAVRYTGFYYWGQGTQVTVSS | high polyreactivity
25 | QVQLVESGGGLVQAGGSLRLSCAASGSIFSGNAMGWYRQAPGTERELVATISWSGGSTNYADSVKGRFTISRDNAKNTVYIQMNSLKPEETSVYYCNAYVAYWGWVYRVDYWRQGTQVTVSS | low polyreactivity
26 | QVQLVESGGGLVQAGGSLRLSCAASGSIFSGYAMGWYRQAPGKERELVAAITWRGGSTYYADSVKGRFTISRDNAKNTVYLQMNSLKPEDTAVYYCARVWAWSRYDYWGQGTEVTVSS | high polyreactivity
27 | QVQLVESGGGLVQAGGSLRLSCAASGSIFSGYTMGWYRQAPGKERELVATISSSGGRTRYADSVKGRFTISRDNAKNTVYLQMNSLKPEDTAVYYCAAAYYVKYNSEYEYWGQGTQVTVSS | high polyreactivity
28 | QVQLVESGGGLVQAGGSLRLSCAASGSIFSGYTMGWYRQAPGQERELVAAISYRGGRTYYADSVKGRFTISRDNAKNTVYLQMNSLKPEDTAVYYCNAAPYITRRHDYWGQGTQVTVSS | high polyreactivity
29 | QVQLVESGGGLVQAGGSLRLSCAASGSIFSIYAMGWYRQAPGKERELVAAIDSGTSTTYADSVKGRFRISRDNAKKTVYLQMKSLKPEDTAVYYCAAALYSDVAAVATFGYYWGQGTQVTVSS | low polyreactivity
30 | QVQLVESGGGLVQAGGSLRLSCAASGSIFSIYAMGWYRQAPGKERELVAAISWSGGSTYYADSVKGRFTISRDNAKNTVYLQMTSQKPEDTAVYYCLRQDYHYHPYDYWGQGTQVTVSS | low polyreactivity
